The text below walks through data of US20200199241A1 (Chugai, published 2020).

First the molecules themselves.
B1: IgG1-F135 (antibody)
heavy: QVQLQESGPGLVKPSETLSLTCAVSGHSISHDHAWSWVRQPPGEGLEWIGFISYSGITNYNPSLQGRVTISRDNSKNTLYLQMNSLRAEDTAVYYCARSLARTTAMDYWGEGTLVTVSSASTKGPSVFPLAPSSKSTSGGTAALGCLVKDYFPEPVTVSWNSGALTSGVHTFPAVLQSSGLYSLSSVVTVPSSSLGTQTYICNVNHKPSNTKVDKKVEPKSCDKTHTCPPCPAPELLGGPSVFLFPPKPKDTLMISRTSEVTCVVVDVSHEDPEVKFNWYVDGVEVHNAKTKPREEQYNSTYRVVSVLTVLHQDWLNGKEYKCKVSNKALPAPIEKTISKAKGQPREPQVYTLPPSRDELTKNQVSLTCLVKGFYPSDIAVEWESNGQPENNYKTTPPVLDSDGSFFLYSKLTVDKSRWQQGNVFSCSVLHEALHYHYTQKSLSLSP
light: not shown
notes: EU numbering; copies: 2 + 2
B2: IgG1-F139 (antibody)
heavy: QVQLQESGPGLVKPSETLSLTCAVSGHSISHDHAWSWVRQPPGEGLEWIGFISYSGITNYNPSLQGRVTISRDNSKNTLYLQMNSLRAEDTAVYYCARSLARTTAMDYWGEGTLVTVSSASTKGPSVFPLAPSSKSTSGGTAALGCLVKDYFPEPVTVSWNSGALTSGVHTFPAVLQSSGLYSLSSVVTVPSSSLGTQTYICNVNHKPSNTKVDKKVEPKSCDKTHTCPPCPAPELLGGPSVFLFPPKPKDTLWISRTPEVTCVVVDVSHEDPEVKFNWYVDGVEVHNAKTKPREEQYNSTYRVVSVLTPLHQDWLNGKEYKCKVSNKALPAPIEKTISKAKGQPREPQVYTLPPSRDELTKNQVSLTCLVKGFYPSDIAVEWESNGQPENNYKTTPPVLDSDGSFFLYSKLTVDKSRWQQGNVFSCSVMHEALHWHYTQKSLSLSP
light: not shown
notes: EU numbering; copies: 2 + 2
B3: IgG1-F145 (antibody)
heavy: QVQLQESGPGLVKPSETLSLTCAVSGHSISHDHAWSWVRQPPGEGLEWIGFISYSGITNYNPSLQGRVTISRDNSKNTLYLQMNSLRAEDTAVYYCARSLARTTAMDYWGEGTLVTVSSASTKGPSVFPLAPSSKSTSGGTAALGCLVKDYFPEPVTVSWNSGALTSGVHTFPAVLQSSGLYSLSSVVTVPSSSLGTQTYICNVNHKPSNTKVDKKVEPKSCDKTHTCPPCPAPELLGGPSVFLFPPKPKDTLYISRTPEVTCVVVDVSHEDPEVKFNWYVDGVEVHNAKTKPREEQYNSTYRVVSVLTFLHQDWLNGKEYKCKVSNKALPAPIEKTISKAKGQPREPQVYTLPPSRDELTKNQVSLTCLVKGFYPSDIAVEWESNGQPENNYKTTPPVLDSDGSFFLYSKLTVDKSRWQQGNVFSCSVMHEALHYHYTQKSLSLSP
light: not shown
notes: EU numbering; copies: 2 + 2
B4: IgG1-F137 (antibody)
heavy: QVQLQESGPGLVKPSETLSLTCAVSGHSISHDHAWSWVRQPPGEGLEWIGFISYSGITNYNPSLQGRVTISRDNSKNTLYLQMNSLRAEDTAVYYCARSLARTTAMDYWGEGTLVTVSSASTKGPSVFPLAPSSKSTSGGTAALGCLVKDYFPEPVTVSWNSGALTSGVHTFPAVLQSSGLYSLSSVVTVPSSSLGTQTYICNVNHKPSNTKVDKKVEPKSCDKTHTCPPCPAPELLGGPSVFLFPPKPKDTLMISRTVEVTCVVVDVSHEDPEVKFNWYVDGVEVHNAKTKPREEQYNSTYRVVSVLTVLHQDWLNGKEYKCKVSNKALPAPIEKTISKAKGQPREPQVYTLPPSRDELTKNQVSLTCLVKGFYPSDIAVEWESNGQPENNYKTTPPVLDSDGSFFLYSKLTVDKSRWQQGNVFSCSVLHEALHYHYTQKSLSLSP
light: not shown
notes: EU numbering; copies: 2 + 2
B5: IgG1-F141 (antibody)
heavy: QVQLQESGPGLVKPSETLSLTCAVSGHSISHDHAWSWVRQPPGEGLEWIGFISYSGITNYNPSLQGRVTISRDNSKNTLYLQMNSLRAEDTAVYYCARSLARTTAMDYWGEGTLVTVSSASTKGPSVFPLAPSSKSTSGGTAALGCLVKDYFPEPVTVSWNSGALTSGVHTFPAVLQSSGLYSLSSVVTVPSSSLGTQTYICNVNHKPSNTKVDKKVEPKSCDKTHTCPPCPAPELLGGPSVFLFPPKPKDTLYISRTPEVTCVVVDVSHEDPEVKFNWYVDGVEVHNAKTKPREEQYNGTYRVVSVLTPLHQDWLNGKEYKCKVSNKALPAPIEKTISKAKGQPREPQVYTLPPSRDELTKNQVSLTCLVKGFYPSDIAVEWESNGQPENNYKTTPPVLDSDGSFFLYSKLTVDKSRWQQGNVFSCSVMHEALHYHYTQKSLSLSP
light: not shown
notes: EU numbering; copies: 2 + 2
B6: IgG1-F136 (antibody)
heavy: QVQLQESGPGLVKPSETLSLTCAVSGHSISHDHAWSWVRQPPGEGLEWIGFISYSGITNYNPSLQGRVTISRDNSKNTLYLQMNSLRAEDTAVYYCARSLARTTAMDYWGEGTLVTVSSASTKGPSVFPLAPSSKSTSGGTAALGCLVKDYFPEPVTVSWNSGALTSGVHTFPAVLQSSGLYSLSSVVTVPSSSLGTQTYICNVNHKPSNTKVDKKVEPKSCDKTHTCPPCPAPELLGGPSVFLFPPKPKDTLMISRTTEVTCVVVDVSHEDPEVKFNWYVDGVEVHNAKTKPREEQYNSTYRVVSVLTVLHQDWLNGKEYKCKVSNKALPAPIEKTISKAKGQPREPQVYTLPPSRDELTKNQVSLTCLVKGFYPSDIAVEWESNGQPENNYKTTPPVLDSDGSFFLYSKLTVDKSRWQQGNVFSCSVLHEALHYHYTQKSLSLSP
light: not shown
notes: EU numbering; copies: 2 + 2
B7: IgG1-F140 (antibody)
heavy: QVQLQESGPGLVKPSETLSLTCAVSGHSISHDHAWSWVRQPPGEGLEWIGFISYSGITNYNPSLQGRVTISRDNSKNTLYLQMNSLRAEDTAVYYCARSLARTTAMDYWGEGTLVTVSSASTKGPSVFPLAPSSKSTSGGTAALGCLVKDYFPEPVTVSWNSGALTSGVHTFPAVLQSSGLYSLSSVVTVPSSSLGTQTYICNVNHKPSNTKVDKKVEPKSCDKTHTCPPCPAPELLGGPKVFLFPPKPKDTLYISRTPEVTCVVVDVSHEDPEVKFNWYVDGVEVHNAKTKPREEQYNSTYRVVSVLTPLHQDWLNGKEYKCKVSNKALPAPIEKTISKAKGQPREPQVYTLPPSRDELTKNQVSLTCLVKGFYPSDIAVEWESNGQPENNYKTTPPVLDSDGSFFLYSKLTVDKSRWQQGNVFSCSVMHEALHYHYTQKSLSLSP
light: not shown
notes: copies: 2 + 2
B8: IgG1-F143 (antibody)
heavy: QVQLQESGPGLVKPSETLSLTCAVSGHSISHDHAWSWVRQPPGEGLEWIGFISYSGITNYNPSLQGRVTISRDNSKNTLYLQMNSLRAEDTAVYYCARSLARTTAMDYWGEGTLVTVSSASTKGPSVFPLAPSSKSTSGGTAALGCLVKDYFPEPVTVSWNSGALTSGVHTFPAVLQSSGLYSLSSVVTVPSSSLGTQTYICNVNHKPSNTKVDKKVEPKSCDKTHTCPPCPAPELLGGPSVFLFPPKPKDTLYISRTPEVTCVVVDVSHEDPEVKFNWYVDGVEVHNAKTKPREEQYNSTYRVVSVLTALHQDWLNGKEYKCKVSNKALPAPIEKTISKAKGQPREPQVYTLPPSRDELTKNQVSLTCLVKGFYPSDIAVEWESNGQPENNYKTTPPVLDSDGSFFLYSKLTVDKSRWQQGNVFSCSVMHEALHYHYTQKSLSLSP
light: not shown
notes: EU numbering; copies: 2 + 2
B9: IgG1-F142 (antibody)
heavy: QVQLQESGPGLVKPSETLSLTCAVSGHSISHDHAWSWVRQPPGEGLEWIGFISYSGITNYNPSLQGRVTISRDNSKNTLYLQMNSLRAEDTAVYYCARSLARTTAMDYWGEGTLVTVSSASTKGPSVFPLAPSSKSTSGGTAALGCLVKDYFPEPVTVSWNSGALTSGVHTFPAVLQSSGLYSLSSVVTVPSSSLGTQTYICNVNHKPSNTKVDKKVEPKSCDKTHTCPPCPAPELLGGPSVFLFPPKPKDTLYISRTPEVTCVVVDVSHEFPEVKFNWYVDGVEVHNAKTKPREEQYNSTYRVVSVLTPLHQDWLNGKEYKCKVSNKALPAPIEKTISKAKGQPREPQVYTLPPSRDELTKNQVSLTCLVKGFYPSDIAVEWESNGQPENNYKTTPPVLDSDGSFFLYSKLTVDKSRWQQGNVFSCSVMHEALHYHYTQKSLSLSP
light: not shown
notes: EU numbering; copies: 2 + 2

The target in the test is T1, human FcRn (soluble human FcRn complexed with β2-microglobulin) (human, UniProt P61769 21-119, limits assumed).
T1 construct: also called hFcRn
T1 sequence (chain, as listed by the source limits assumed, chain 1 of 2): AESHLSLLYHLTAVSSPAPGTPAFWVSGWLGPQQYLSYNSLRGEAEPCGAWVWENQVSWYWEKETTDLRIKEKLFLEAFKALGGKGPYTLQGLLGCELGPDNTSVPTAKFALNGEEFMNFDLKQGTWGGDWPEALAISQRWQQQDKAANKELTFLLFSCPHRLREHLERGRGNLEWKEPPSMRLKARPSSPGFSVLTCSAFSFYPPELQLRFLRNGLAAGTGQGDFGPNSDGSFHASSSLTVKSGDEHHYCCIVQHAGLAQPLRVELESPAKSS
T1 sequence (P61769 21-119 limits assumed, chain 2 of 2): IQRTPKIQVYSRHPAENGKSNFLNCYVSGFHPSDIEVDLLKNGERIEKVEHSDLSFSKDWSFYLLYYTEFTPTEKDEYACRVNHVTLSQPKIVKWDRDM
The test is described as follows: SPR, pH 7.0.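 Also: antibodies captured on a Protein L sensor chip with human FcRn injected as analyte, KD calculated from fitted association and dissociation rate constants.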 Background: In SPR one partner is held on a chip, and binding of the other changes the refractive index at the surface.
In general, Kd refers to the concentration at which binding is half-saturated. Low values mean a tighter complex, high ones a looser complex. For B1, the Kd came to 750 nM.
In the case of B2 it was 15 nM; in that of B3, 53 nM; in that of B4, 460 nM.
In turn, B5 gave a Kd of 35 nM.
Next, B6: 380 nM; B7: 36 nM; B8: 200 nM.
In the case of B9 it was 37 nM.
